This assay has as its target T1, GST-tagged Rad27 (S. cerevisiae, UniProt P26793 1-382).
T1 sequence (looked up): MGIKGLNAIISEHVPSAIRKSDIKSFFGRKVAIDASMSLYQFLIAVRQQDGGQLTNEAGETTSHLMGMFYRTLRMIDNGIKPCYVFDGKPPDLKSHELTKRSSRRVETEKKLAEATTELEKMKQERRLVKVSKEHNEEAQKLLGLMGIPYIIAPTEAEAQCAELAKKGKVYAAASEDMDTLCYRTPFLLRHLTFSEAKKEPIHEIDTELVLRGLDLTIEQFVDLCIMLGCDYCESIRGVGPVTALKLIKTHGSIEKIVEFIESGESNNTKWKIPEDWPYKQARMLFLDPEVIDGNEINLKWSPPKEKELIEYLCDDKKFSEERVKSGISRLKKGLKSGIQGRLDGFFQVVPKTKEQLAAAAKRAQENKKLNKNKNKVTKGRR
In words: pull-down.

B1: his-tagged Nej1 C-terminal fragment (residues 129-343) (domain or fragment, S. cerevisiae, UniProt Q06148 129-342, looked up)
chain: MFYMILQSLCMLLLKLVNLSTQYHYVQRDILNEKQKCLDFLLISLRDLDGGSKVISQWAPENSKNYESLQQCTDDDIIKKLLHKGKFQHQEFLADSLKTLLSLRNKFQDVSRFEESGELNKKERVRFPAVNHFYNDDFELQADPTNEARPNSRGKIKPKTDFKPKSRESSTSSQLRLENFSESEATPEKTKSSSSLVEEYPQKKRKFGKVRIKN
For the molecule B1, the binding result is “binds”.
